Experiment [1] has as its target integrin α2β1 α2 ligand binding domain (Homo sapiens) (UniProt P17301). The note with it: cited from earlier work.
Experiment [2] shares this target. The note with it: cited from earlier work. This is another data set of the same source.
The target in experiment [3] is integrin α5β1 (Homo sapiens) (UniProt P08648). The note with it: cited from earlier work.
The target in the next experiment is α5β1 integrin (UniProt P08648). As to the kind of experiment: optical biosensor (IAsys); α5β1 integrin immobilised; free LG3 at 3.1×10^−8 M to 3.1×10^−7 M, D3904A DV at 8.0×10^−8 M to 4.0×10^−7 M; global fitting; Kd calculated as koff/kon.
Sequence of α5β1 integrin (P08648 42-1049, chain 1 of 2): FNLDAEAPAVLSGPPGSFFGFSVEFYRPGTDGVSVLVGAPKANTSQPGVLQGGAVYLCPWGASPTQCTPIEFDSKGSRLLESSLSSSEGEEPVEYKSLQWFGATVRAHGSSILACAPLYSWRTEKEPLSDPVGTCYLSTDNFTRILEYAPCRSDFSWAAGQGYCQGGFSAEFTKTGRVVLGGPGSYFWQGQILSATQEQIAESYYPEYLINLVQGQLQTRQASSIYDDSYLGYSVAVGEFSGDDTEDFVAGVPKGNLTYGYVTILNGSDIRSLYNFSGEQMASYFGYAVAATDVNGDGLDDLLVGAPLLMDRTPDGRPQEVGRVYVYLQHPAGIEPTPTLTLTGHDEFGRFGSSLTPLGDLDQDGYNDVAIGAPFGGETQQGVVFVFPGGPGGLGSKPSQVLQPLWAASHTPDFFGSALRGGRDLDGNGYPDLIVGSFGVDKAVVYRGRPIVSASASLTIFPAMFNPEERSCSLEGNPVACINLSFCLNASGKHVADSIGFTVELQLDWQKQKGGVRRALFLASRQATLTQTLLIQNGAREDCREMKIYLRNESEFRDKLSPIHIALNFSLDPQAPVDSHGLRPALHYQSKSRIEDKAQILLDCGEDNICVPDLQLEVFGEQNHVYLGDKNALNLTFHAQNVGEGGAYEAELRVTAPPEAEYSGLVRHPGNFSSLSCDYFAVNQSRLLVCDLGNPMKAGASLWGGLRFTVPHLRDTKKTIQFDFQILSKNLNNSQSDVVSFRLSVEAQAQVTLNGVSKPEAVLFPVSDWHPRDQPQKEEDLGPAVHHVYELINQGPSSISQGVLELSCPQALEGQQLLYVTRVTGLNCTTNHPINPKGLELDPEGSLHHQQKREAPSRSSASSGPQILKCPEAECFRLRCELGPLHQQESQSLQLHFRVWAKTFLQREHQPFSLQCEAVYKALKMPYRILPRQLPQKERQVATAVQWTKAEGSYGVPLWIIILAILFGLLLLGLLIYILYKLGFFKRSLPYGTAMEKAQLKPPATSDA
Sequence of α5β1 integrin (P05556 21-798, chain 2 of 2, further chain): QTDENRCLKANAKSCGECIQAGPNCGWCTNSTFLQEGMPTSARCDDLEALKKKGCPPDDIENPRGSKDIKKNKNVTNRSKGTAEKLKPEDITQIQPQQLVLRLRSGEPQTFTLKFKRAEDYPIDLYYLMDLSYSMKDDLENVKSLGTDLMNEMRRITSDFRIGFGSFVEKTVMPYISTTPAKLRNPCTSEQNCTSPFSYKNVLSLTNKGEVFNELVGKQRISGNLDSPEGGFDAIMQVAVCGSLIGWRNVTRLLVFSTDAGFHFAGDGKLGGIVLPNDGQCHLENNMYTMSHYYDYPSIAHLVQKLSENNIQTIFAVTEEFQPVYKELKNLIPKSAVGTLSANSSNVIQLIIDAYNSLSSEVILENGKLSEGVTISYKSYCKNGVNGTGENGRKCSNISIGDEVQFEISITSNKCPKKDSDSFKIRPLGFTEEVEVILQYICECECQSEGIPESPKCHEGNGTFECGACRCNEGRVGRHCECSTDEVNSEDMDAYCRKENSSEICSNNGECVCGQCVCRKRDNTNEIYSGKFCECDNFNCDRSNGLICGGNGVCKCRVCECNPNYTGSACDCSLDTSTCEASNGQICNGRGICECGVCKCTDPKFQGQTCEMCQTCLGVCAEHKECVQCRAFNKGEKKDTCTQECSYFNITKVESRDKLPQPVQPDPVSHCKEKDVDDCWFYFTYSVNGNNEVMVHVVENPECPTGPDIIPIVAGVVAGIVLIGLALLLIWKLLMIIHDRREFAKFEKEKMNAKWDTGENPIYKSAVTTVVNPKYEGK

Like-named read-outs stand apart in the source and are kept apart here.

Sequence of integrin α2β1 α2 ligand binding domain (Homo sapiens) (P17301 30-1132, chain 1 of 2): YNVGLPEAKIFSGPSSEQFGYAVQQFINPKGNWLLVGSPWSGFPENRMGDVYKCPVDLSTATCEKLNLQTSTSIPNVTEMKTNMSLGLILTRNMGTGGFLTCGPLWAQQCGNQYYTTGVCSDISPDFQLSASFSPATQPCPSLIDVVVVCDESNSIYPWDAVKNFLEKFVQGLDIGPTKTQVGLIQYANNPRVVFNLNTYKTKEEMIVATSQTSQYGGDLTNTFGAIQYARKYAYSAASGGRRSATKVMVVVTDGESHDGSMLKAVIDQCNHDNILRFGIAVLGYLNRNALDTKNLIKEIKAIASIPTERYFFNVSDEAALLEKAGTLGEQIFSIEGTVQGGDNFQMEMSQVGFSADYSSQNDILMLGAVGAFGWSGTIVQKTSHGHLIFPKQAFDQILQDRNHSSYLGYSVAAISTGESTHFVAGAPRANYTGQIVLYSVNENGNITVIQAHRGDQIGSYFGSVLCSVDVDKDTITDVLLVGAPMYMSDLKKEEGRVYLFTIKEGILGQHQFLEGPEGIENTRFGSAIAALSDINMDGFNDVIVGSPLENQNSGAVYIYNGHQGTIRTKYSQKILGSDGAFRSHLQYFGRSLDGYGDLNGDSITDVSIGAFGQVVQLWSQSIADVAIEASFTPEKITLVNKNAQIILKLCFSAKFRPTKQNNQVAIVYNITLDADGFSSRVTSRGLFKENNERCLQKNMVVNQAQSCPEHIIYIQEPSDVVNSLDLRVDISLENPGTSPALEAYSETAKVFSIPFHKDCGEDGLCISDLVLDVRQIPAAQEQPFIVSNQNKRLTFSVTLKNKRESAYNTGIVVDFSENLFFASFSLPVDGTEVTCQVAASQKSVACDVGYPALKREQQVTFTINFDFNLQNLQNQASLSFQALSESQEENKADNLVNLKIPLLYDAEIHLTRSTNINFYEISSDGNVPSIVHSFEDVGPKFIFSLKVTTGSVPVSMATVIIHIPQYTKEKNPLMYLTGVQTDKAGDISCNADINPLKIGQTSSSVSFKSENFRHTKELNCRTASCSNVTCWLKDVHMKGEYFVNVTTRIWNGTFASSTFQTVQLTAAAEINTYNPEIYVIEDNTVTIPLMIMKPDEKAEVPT
Sequence of integrin α2β1 α2 ligand binding domain (Homo sapiens) (P05556 21-728, chain 2 of 2, further chain): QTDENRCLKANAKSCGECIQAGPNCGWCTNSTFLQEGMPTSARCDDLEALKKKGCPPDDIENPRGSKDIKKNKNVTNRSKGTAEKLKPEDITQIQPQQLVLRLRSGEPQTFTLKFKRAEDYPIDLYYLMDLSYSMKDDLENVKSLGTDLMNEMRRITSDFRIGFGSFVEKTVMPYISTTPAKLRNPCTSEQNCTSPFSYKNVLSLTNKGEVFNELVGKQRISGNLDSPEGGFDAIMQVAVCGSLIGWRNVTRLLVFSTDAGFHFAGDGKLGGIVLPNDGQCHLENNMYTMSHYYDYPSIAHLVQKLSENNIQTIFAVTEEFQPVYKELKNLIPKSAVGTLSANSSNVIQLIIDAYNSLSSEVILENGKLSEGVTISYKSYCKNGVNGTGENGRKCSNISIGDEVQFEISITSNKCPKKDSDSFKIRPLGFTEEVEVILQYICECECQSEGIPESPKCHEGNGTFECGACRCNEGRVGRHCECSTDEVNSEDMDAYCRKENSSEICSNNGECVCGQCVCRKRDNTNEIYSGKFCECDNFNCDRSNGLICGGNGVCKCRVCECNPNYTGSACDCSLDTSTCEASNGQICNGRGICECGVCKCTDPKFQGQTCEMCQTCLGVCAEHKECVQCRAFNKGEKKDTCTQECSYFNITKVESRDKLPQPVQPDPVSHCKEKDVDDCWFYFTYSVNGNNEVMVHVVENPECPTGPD
Sequence of Perlecan domain V Domain V (P98160 3687-4391): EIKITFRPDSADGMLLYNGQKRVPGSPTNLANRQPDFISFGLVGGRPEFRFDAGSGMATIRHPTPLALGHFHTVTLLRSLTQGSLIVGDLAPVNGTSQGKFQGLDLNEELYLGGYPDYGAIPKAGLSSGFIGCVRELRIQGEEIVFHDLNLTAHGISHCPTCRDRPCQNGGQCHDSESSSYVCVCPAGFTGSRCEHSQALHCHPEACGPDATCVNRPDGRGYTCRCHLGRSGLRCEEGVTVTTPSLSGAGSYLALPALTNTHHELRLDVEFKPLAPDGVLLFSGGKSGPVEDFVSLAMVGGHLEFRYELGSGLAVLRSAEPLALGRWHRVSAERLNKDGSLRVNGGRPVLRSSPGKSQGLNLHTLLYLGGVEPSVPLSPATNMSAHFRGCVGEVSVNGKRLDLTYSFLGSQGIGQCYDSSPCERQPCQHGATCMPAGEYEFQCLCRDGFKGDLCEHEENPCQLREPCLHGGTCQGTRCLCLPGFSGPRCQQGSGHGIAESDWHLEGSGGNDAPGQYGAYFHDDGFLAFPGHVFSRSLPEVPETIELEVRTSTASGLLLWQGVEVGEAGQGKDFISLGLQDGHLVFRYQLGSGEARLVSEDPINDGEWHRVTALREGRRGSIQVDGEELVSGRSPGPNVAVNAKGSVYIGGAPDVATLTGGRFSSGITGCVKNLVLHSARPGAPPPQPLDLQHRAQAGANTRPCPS
Sequence of Perlecan LG3 LG3 (P98160 4194-4391): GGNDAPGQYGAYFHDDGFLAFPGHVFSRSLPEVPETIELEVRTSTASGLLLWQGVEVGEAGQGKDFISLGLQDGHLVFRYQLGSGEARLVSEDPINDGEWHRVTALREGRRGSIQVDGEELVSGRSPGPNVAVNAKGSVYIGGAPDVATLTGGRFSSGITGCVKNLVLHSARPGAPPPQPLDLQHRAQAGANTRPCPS

Turning to Perlecan LG3 LG3 (from UniProt P98160), in experiment [1], the Kd was 1000 nM.

On to “Perlecan domain V Domain V (from UniProt P98160)”, for which the Kd in experiment [2] is 80 nM; in experiment [3], 160 nM.

Take “D3904A DV (perlecan Domain V with A in place of the D of its DGR sequence) (domain or fragment; other documents disagree on this pair)”: in the experiment with α5β1 integrin, the Kd was 370 nM, the koff was 0.22 s⁻¹ and the kon was 600000 M⁻¹ s⁻¹.

The values above are taken from paper PMC3444475.
